Source: publication PMC7554088

Target: T1, Rev7, accessory subunit of S. cerevisiae DNA polymerase ζ (S. cerevisiae), P38927
T1 chain: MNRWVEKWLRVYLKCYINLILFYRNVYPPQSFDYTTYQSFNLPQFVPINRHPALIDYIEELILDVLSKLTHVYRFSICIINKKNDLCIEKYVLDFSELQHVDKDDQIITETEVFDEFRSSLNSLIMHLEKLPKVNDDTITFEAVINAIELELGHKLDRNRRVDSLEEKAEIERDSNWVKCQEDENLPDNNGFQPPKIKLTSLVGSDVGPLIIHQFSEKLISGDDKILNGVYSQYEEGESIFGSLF
Assay: cryo-EM structure
Settings: remark: other sources report otherwise

B1: Rev7, accessory subunit of S. cerevisiae DNA polymerase ζ, P38927 1-245 (natural protein)
chain: T1 chain
In the case of B1, the stoichiometry N is reported as 2.
